These results are taken from article PMC9079172, “BAG6 prevents the aggregation of neurodegeneration-associated fragments of TDP43” (iScience, 2022).

This assay addresses T1, BAG6, wild type, FLAG-tagged, exogenously overexpressed (pRK5-FLAG-Bag6) (UniProt P46379 1-1132).
T1 construct: BAG6, wild type, from pRK5-FLAG-Bag6 (Liu et al., 2014); In HEK293T cells the anti-BAG6 antibody also precipitates endogenous BAG6; also called wild type BAG6; ^fBAG6; source: HEK293T or BAG6-KO HEK293T, transfected, in lysate; not shown: FLAG, N-terminal, kept
Nature of the assay: co-IP; anti-BAG6 IP from soluble fractions of HEK293T cells overexpressing the fragments and BAG6 or BAG6ΔUBL; blots with anti-TDP43, anti-FLAG or anti-Myc; lysis/wash buffer 50 mM HEPES pH 7.5, 10% glycerol, 0.05% NP-40, 150 mM NaCl, 4°C. The conditions noted are these: partners not purified.

T1 sequence (P46379 whole entry): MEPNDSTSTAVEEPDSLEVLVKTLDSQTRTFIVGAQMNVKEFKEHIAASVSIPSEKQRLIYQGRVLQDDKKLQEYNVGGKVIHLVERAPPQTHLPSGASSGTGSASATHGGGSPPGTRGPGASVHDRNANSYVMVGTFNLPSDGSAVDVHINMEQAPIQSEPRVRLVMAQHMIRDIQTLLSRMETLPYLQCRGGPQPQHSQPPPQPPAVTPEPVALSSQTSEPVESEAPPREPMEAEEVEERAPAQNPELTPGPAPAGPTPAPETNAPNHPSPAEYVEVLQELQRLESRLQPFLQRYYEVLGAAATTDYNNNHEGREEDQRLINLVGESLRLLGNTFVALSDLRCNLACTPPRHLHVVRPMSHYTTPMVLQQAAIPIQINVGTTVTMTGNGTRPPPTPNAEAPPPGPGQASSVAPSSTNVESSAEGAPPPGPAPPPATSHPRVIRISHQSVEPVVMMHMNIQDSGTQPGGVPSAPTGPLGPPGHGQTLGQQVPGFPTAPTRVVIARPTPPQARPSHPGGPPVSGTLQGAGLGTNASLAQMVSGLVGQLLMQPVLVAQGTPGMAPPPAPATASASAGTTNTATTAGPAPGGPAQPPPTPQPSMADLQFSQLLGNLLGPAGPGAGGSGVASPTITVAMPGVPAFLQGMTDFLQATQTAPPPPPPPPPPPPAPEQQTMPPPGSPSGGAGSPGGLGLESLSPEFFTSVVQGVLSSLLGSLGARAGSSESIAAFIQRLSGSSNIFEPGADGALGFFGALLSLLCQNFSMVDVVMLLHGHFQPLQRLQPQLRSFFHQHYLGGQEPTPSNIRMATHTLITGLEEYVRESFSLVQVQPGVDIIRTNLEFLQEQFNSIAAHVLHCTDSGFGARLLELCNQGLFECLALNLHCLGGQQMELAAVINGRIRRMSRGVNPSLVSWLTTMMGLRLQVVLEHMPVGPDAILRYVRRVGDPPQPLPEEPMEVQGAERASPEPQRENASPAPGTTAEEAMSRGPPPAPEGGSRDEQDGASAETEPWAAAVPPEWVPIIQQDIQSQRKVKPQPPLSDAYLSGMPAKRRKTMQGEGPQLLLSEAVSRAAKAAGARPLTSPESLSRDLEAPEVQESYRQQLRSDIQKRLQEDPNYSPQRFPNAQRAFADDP

B1: TDP43^219 (Val^219-TDP43^f), C-terminal fragment of human TDP43, amino acids 219 - 414, bearing N-terminal Val and a C-terminal FLAG tag (domain or fragment, UniProt Q13148 219-414, looked up)
chain: VVFIPKPFRAFAFVTFADDQIAQSLCGEDLIIKGISVHISNAEPKHNSNRQLERSGRFGGNPGGFGNQGGFGNSRGGGAGLGNNQGSNMGGGMNFGAFSINPAMMAAAQAALQSSWGMMGMLASQQNQSGPSGNNQNQGNMQREPNQAFGSGNNSYSGSNSGAAIGWGSASNAGSGSGFNGGFGSSMDSKSSGWGM
notes: the part up to the last residue of Ub is cut off co-translationally; not shown: FLAG, C-terminal, kept
In the case of B1, the “fold affinity relative to TDP43^247 (densitometry of the co-immunoprecipitate)” value is ~5 fold.
